Residue numbers refer to the chain shown, from its start. Where “and” joins values, the source holds several entries; their conditions need not be identical. Identical values can stand only once. Like-named read-outs stand apart in the source and are kept apart here.
B1: EflACE2-Fc-H429Y (Fc fusion)
chain: ETGSTIEEQAKYFLDKFNHEAEDLFYQSSLASWNYNTNITEENVQNMNNAGDKWSAFLKEQSTTAQMYPLQEIQNLTVKLQLQALQQNGSSVLSEDKSKRLNTILNTMSTIYSTGKVCNPDNPQECLLLEPGLNEIMANSLDYNERLWAWESWRSEVGKQLRPLYEEYVVLKNEMARANHYEDYGDYWRGDYEVNGVDGYDYSRGQLIEDVEHTFEEIKPLYEHLHAYVRAKLMNAYPSYISPIGCLPAHLLGDMWGRFWTNLYSLTVPFGQKPNIDVTDAMVDQAWDAQRIFKEAEKFFVSVGLPNMTQGFWEYSMLTDPGNVQKAVCHPTAWDLGKGDFRILMCTKVTMDDFLTAHHEMGHIQYDMAYAAQPFLLRNGANEGFHEAVGEIMSLSAATPKHLKSIGLLSPDFQEDNETEINFLLKQALTIVGTLPFTYMLEKWRWMVFKGEIPKDQWMKKWWEMKREIVGVVEPVPHDETYCDPASLFHVSNDYSFIRYYTRTLYQFQFQEALCQAAKHEGPLHKCDISNSTEAGQKLFNMLRLGKSEPWTLALENVVGAKNMNVRPLLNYFEPLFTWLKDQNKNSFVGWSTDWSPYADQSIKVRISLKSALGDRAYEWNDNEMYLFRSSVAYAMRQYFLKVKNQMILFGEEDVRVANLKPRISFNFFVTAPKNVSDIIPRTEVEKAIRMSRSRINDAFRLNDNSLEFLGIQPTLGPPNQPPVSGGGGSTHTCPPCPAPELLGGPSVFLFPPKPKDTLMISRTPEVTCVVVDVSHEDPEVKFNWYVDGVEVHNAKTKPREEQYNSTYRVVSVLTVLHQDWLNGKEYKCKVSNKALPAPIEKTISKAKGQPREPQVYTLPPSREEMTKNQVSLTCLVKGFYPSDIAVEWESNGQPENNYKTTPPVLDSDGSFFLYSKLTVDKSRWQQGNVFSCSVMYEALHNHYTQKSLSLSPGK
notes: also called EflACE2-Fc-H429Yoli; Yoli
B2: EflACE2-Fc-H429F (Fc fusion)
chain: B1 chain with Y937F
notes: also called EflACE2-Fc F

Legend:
SARS-CoV-2 RBD-Ig [1] = biological target: T1, SARS-CoV-2 RBD-Ig (SARS-CoV-2; mouse, UniProt P0DTC2 319-541)
[2] = biological target: SARS-CoV-2 spike protein on virus (CoV/Australia/VIC01/2020) (SARS-CoV-2, UniProt P0DTC2 14-1273); assay: cell-based or functional assay
[3] = biological target: SARS-CoV-2 spike protein expressed on Ramos-S cells (SARS-CoV-2, UniProt P0DTC2 14-1273)
SARS-CoV-2 RBD-Ig [4] = biological target: T1, SARS-CoV-2 RBD-Ig; assay: ELISA: ACE2-Fc titrated on immobilised RBD-Ig (A450), curve fit

| Binder | EC50 (SARS-CoV-2 RBD-Ig [1]) | fold of neutralisation activity over unfused trACE2 [2] [fold] | EC50 [3] [nM] | EC50 (SARS-CoV-2 RBD-Ig [4]) [nM] |
| --- | --- | --- | --- | --- |
| B1 | 0.38 nM and 0.6 nM | > 600 | – | – |
| B2 | – | – | 2.1 | 0.21 |
